B1: Katanin p60 ATPase-containing subunit A1 (Mus musculus), Q9WV86 (parent)
chain: MSLQMIVENVKLAREYALLGNYDSAMVYYQGVLDQMNKYLYSVKDTHLRQKWQQVWQEINVEAKQVKDIMKTLESFKLDITSLQAAQHELPAAEGEVWSLPVPVERRPLPGPRKRQSSQHSDPKPHSNRPSTVVRAHRPSPQNLHNDRGKAVRSREKKEQSKGREEKNKLPAAVTEPEANKFDGTGYDKDLVEALERDIISQNPNVRWYDIADLVEAKKLLQEAVVLPMWMPEFFKGIRRPWKGVLMVGPPGTGKTLLAKAVATECKTTFFNVSSSTLTSKYRGESEKLVRLLFEMARFYSPATIFIDEIDSICSRRGTSEEHEASRRMKAELLVQMDGVGGASENDDPSKMVMVLAATNFPWDIDEALRRRLEKRIYIPLPSAKGREELLRISLRELELADDVNLASIAENMEGYSGADITNVCRDASLMAMRRRIEGLTPEEIRNLSREAMHMPTTMEDFEMALKKISKSVSAADIERYEKWIVEFGSC

Variants of: B1
Conditions: with ktnb1_mouse Katnb1, Q8BG40
ktnb1_mouse Katnb1, Q8BG40, sequence (Q8BG40 whole entry): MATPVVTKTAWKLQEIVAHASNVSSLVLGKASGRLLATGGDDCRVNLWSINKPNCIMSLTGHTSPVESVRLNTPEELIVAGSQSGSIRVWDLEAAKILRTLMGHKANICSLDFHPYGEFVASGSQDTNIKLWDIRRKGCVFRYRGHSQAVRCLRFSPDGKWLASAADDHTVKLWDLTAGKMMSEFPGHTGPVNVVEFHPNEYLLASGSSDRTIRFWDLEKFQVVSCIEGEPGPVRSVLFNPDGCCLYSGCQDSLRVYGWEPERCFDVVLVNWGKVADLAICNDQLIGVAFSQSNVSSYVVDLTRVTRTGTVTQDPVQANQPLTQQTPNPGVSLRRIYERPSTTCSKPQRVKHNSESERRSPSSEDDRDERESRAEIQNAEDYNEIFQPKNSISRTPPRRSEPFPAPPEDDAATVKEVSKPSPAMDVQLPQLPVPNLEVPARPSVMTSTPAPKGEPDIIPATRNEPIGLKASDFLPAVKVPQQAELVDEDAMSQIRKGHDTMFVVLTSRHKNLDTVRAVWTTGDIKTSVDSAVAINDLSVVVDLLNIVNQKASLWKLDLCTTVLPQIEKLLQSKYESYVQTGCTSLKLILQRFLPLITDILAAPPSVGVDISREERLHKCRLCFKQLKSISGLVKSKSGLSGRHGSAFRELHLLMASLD

Row | effect of a mutation on the interaction | Variant
1 | with no effect | L19A
2 | with no effect | L18A
